We go through 1 substance from article PMC10333379.

The assay concerns the target human angiotensin-converting enzyme 2 (hACE2) with an Fc domain (human) (UniProt Q9BYF1). As to the kind of experiment: BLI. Background: In BLI a coated tip is dipped into the sample, and binding shifts an interference pattern.
UniProt Q9BYF1, sequence (Q9BYF1 18-740): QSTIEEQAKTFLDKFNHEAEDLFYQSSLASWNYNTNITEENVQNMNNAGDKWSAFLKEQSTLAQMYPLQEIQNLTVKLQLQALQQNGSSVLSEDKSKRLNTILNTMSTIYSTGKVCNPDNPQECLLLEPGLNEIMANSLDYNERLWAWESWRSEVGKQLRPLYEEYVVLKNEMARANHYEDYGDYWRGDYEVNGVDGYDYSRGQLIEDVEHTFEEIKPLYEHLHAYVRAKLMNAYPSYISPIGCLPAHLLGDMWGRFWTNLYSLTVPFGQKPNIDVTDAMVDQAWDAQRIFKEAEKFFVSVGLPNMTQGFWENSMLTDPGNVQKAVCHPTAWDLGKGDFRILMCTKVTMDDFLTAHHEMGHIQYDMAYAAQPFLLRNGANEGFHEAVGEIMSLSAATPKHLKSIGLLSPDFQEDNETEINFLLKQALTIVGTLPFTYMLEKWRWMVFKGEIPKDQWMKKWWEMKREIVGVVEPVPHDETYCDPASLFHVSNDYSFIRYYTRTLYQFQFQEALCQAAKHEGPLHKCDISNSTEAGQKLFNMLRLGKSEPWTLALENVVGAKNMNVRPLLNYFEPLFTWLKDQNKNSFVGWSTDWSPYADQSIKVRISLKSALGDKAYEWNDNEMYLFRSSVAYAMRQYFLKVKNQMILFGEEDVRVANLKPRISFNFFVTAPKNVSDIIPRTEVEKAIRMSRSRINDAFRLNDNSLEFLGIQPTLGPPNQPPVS

As usually defined, the Kd is the constant that tells how readily two partners part at equilibrium. High values mean weaker binding, low ones tighter binding. Substance “Bat SARS-like coronavirus CX1 receptor-binding domain (RBD) of spike protein (domain or fragment)” displayed a Kd of 10.7 nM.
